Assay results from US20230034186A1 (DRAGONFLY THERAPEUTICS, published 2023).

Target: HER2 (human, UniProt P04626 23-1255)
Experiment: cell-based or functional assay

B1: A49-F3′-TriNKET-Trastuzumab (bispecific antibody)
heavy: EVQLVESGGGLVKPGGSLRLSCAASGFTFSSYSMNWVRQAPGKGLEWVSSISSSSSYIYYADSVKGRFTISRDNAKNSLYLQMNSLRAEDTAVYYCARGAPMGAAAGWFDPWGQGTLVTVSSASTKGPSVFPLAPSSKSTSGGTAALGCLVKDYFPEPVTVSWNSGALTSGVHTFPAVLQSSGLYSLSSVVTVPSSSLGTQTYICNVNHKPSNTKVDKKVEPKSCDKTHTCPPCPAPELLGGPSVFLFPPKPKDTLMISRTPEVTCVVVDVSHEDPEVKFNWYVDGVEVHNAKTKPREEQYNSTYRVVSVLTVLHQDWLNGKEYKCKVSNKALPAPIEKTISKAKGQPREPQVCTLPPSRDELTENQVSLTCLVKGFYPSDIAVEWESNGQPENNYKTTPPVLDSDGSFFLYSWLTVDKSRWQQGNVFSCSVMHEALHNHYTQKSLSLSPG
chain: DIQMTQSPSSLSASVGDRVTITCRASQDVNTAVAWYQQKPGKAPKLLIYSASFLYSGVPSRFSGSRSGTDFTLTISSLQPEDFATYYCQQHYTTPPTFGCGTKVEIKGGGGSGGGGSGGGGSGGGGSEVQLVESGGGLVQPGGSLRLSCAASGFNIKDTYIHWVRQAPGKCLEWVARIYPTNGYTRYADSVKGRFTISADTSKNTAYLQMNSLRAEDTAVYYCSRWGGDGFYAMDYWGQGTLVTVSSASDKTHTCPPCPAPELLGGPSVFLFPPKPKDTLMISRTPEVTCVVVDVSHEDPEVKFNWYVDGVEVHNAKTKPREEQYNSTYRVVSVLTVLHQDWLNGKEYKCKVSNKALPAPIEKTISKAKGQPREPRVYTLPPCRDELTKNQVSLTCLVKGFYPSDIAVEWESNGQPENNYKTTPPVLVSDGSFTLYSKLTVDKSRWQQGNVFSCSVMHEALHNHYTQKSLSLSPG
light: DIQMTQSPSSVSASVGDRVTITCRASQGISSWLAWYQQKPGKAPKLLIYAASSLQSGVPSRFSGSGSGTDFTLTISSLQPEDFATYYCQQGVSFPRTFGGGTKVEIKRTVAAPSPPSDEQLKSGTASVVCLLNNFYPREAKVQWKVDNALQSGNSQESVTEQDSKDSTYSLSSTLTLSKADYEKHKVYACEVTHQGLSSPVTKSFNRGEC
EC50 in KHYG-1-CD16V cell killing of Hs578T cells: 0.376 nM | EC50 in KHYG-1-CD16V cell-mediated cytolysis of BT-20 cells: 1.16 nM | fold potency against trastuzumab in triggering NK cell-mediated killing of SKBR-3 cells: 2.5 fold
